{"source": "paper doi:10.1101/827477", "binders": {"B1": {"name": "13B Fab (Fab, V domains shown)", "VH": "LEESGGGLVQPEGSLTLTCKASGFDFSDYHVQWVRQSPGKGLEFIGGIAYTGNIYYASWAKGRFTISKTSSTTVTLQMTTLTAADTATYFCARAYGYASAPYAQYFNLWGPGTLVTVSS", "VL": "DIVMTQTPASVSEPVGGTVTINCQASQSRGNNYLSWYQQKPGQSPSLLIYRTSTLASGVPSRFKGSGSGTQFTLTISDLECADAATYYCLYGYYSSRNPDFAFGGGTEVVVK"}}, "biological_target": "BG505_mut123_N241 SOSIP (HIV-1 (subtype A, BG505)) (UniProt Q2N0S6)", "test": "negative-stain EM"}
{"binder": "B1", "values": [{"measurement": "percent of particles with no Fab bound", "value": 57, "unit": "%"}, {"measurement": "percent of particles with one Fab bound", "value": 43, "unit": "%"}]}
